Laboratory results: PMC9864931 (Vaccines, 2022)

Legend:
[1] = target: E. coli-produced Wuhan-Hu1 RBD (receptor binding domain of the SARS-CoV-2 spike protein, a.a. 319-542) (SARS-CoV-2 (Wuhan-Hu1), UniProt P0DTC2); experiment: BLI; details: both partners purified
[2] = target: mammalian cell-expressed Wuhan-Hu1 RBD reference standard (SARS-CoV-2 (Wuhan-Hu1), UniProt P0DTC2); experiment: BLI; details: both partners purified

B1: mAb WRAIR-2125 (antibody, V domains shown)
VH: EVQLVESGGGVVQPGRSLRLSCAASGFTFSSYGMHWVRQAPGKGLEWVAVISYDGSNKYYADSVKGRFTISRDNSKNTLSLQMNSLRPEDTAVYYCAKDSPYYYDSSGYYPGYFQDWGQGSLVTVSS
VL: DIQMTQSPSSLSASIGDRVTITCRASQTISDYLNWYQQKPGKAPNLLIYAASTLQSGVPSRFSGSGSGTDFTLTISSLQPEDFATYYCQQSYITPRTFGQGTKVEIK
B1: binds [1]; binds [2].

B2: mAb WRAIR-2173 (antibody, V domains shown)
VH: QVQLQESGPGLVKPSETLSLTCSVSGDSISSSDYSWGWIRQPPGKGLEWIGTIYYIKNTYYNPSLRSRVTLSVDTSKNLFSLKLSSVTAADTAVYYCARERPPFDVVVVPAARPYNWFDPWGLGTLVIVSS
VL: QSVLMQPPSVSGAPGQRVTISCTGSSSNIGAGYDVHWYQQLPGTAPKLLIYGNNNRPSGVPDRFSGSKSGTSASLAITGLQADDEADYYCQSYDSSLSGSKVFGGGTKLTVL
B2: binds [1].
